Experimental data from the supplement of paper PMC12042874.
± gives the uncertainty stated by the source.

Test: amyloid nucleation score (Sup35N fusion, yeast selection) (log enrichment); library NNK3; higher = more nucleation; inactive = no reads after selection
How it was run: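 The nucleation score is the log enrichment of output over input reads, calculated with DiMSum and centred on the mode score of non-aggregating sequences. Sequences with under 100 input reads were excluded. Reads came from Illumina sequencing of plasmid inserts from psi-negative yeast expressing Sup35N fused to peptides of 20 random codons, induced 24 hours with 100 μM copper sulfate and grown 7 days at 30°C without adenine and uracil.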

Row | Substance | amyloid nucleation score
1 | TSSLDEGTFV | 0.644 ± 0.16
2 | TSTRSEAFRVVVTLPVAVNW | inactive
3 | TSVDGLCSFMDLRL | inactive
4 | TSVTSTSLSGSLSAV | inactive
5 | TSVWVYTVPSFVGNDIDTS | inactive
6 | TSWLVWRKGNGLGGNGQQRR | inactive
7 | TSYNFTQLTPILVKLMQMNL | inactive
8 | TTDFSNMLDLSGVKVSGVLP | inactive
9 | TTEFKIDR | inactive
10 | TTFIN | inactive
11 | TTFSGETYEYYMFMCW | 0.532 ± 0.17
12 | TTFSLTLIGFNDSGVKLLM | 2.21 ± 0.069
13 | TTIFLDS | inactive
14 | TTLVSNWQCSMGCCEVLWR | 3.32 ± 0.075
15 | TTMWTIKENFTWIVITVDSI | inactive
16 | TTPYWRRECRWSEFGFA | inactive
17 | TTSNMGVVHYL | inactive
18 | TVDVIRYISPDLDKTSYEWK | inactive
19 | TVEQYWRNEREWF | inactive
20 | TVGGEIVNSLGVWCYRVCKR | 0.723 ± 0.26
21 | TVGSRGSTPHCTLLLVSWSL | inactive
22 | TVGVKKYAMGRRYIV | inactive
23 | TVHILANRPRAQYD | inactive
24 | TVLVAGIGCEWSMGESTAMW | inactive
25 | TVPDRDFMFIRIRSHCYVVD | inactive
26 | TVPIILVSTVRANMFFETRN | 1.54 ± 0.093
27 | TVQFMRKAQRQFSGA | inactive

Row | Substance | amyloid nucleation score
28 | TVRDTEFLWFGDWLRRGSLS | -0.034 ± 0.77
29 | TVTLRRYLSMERPYTSIFSI | inactive
30 | TVTWDWNRSEEGRCYLLLWV | inactive
31 | TWCGFWTLMERVYHRRWTSL | inactive
32 | TWDLY | inactive
33 | TWWCLN | inactive
34 | TYCLKLMSQAAPTIEKT | inactive
35 | TYDTGWKCREPNVTIFNVWL | 2.91 ± 0.053
36 | TYEVRTCWDWQRMGSMYLAR | inactive
37 | TYFKSGRNILAHIYMWLILG | inactive
38 | TYFLSDWWRDRSNWLWFLAH | inactive
39 | TYKHTSWETLDDVFSDGSSS | inactive
40 | TYLIWLGHRAHPMSLLHSFA | inactive
41 | TYLNTVRLKSGMMMNMKSTR | inactive
42 | TYPVGPGGFFWDLGCV | inactive
43 | TYRVLE | inactive
44 | TYTWKVTNSTISQLFGYLAD | inactive
45 | TYYADTLAFNSTS | inactive
46 | TYYLSMN | inactive
47 | VAAMSVFSVGCLINIALRSN | 0.93 ± 0.2
48 | VACCAGFDNRAVLWGCANPI | inactive
49 | VAFMIHYMKLPKYSHPWVHN | 0.041 ± 0.59
50 | VALWLVWLFYMRFRGSSFEL | inactive
51 | VASIFRVYAVVGWSVVLVGV | inactive
52 | VAVLVNALSLPEVGKGVVRR | 1.84 ± 0.083
53 | VCEGMKMAALRYREERC | inactive
54 | VCLFHDSLRDNYRT | inactive

Row | Substance | amyloid nucleation score
55 | VCMLVMYESRLNVEKAVLLG | -0.083 ± 0.64
56 | VCSCAHGHTGSEESRSVGSA | inactive
57 | VCSSGQKSLKMLRIFHIFNP | -0.352 ± 0.87
58 | VCSVVARWFVESFCCISWMC | inactive
59 | VCTLGFFSKMGRGPRYYS | inactive
60 | VCVLMIFNIVRRGMYSSARV | inactive
61 | VCVNSLPYLICDIRVIIDRG | 1.11 ± 0.13
62 | VCVSVRDTCGLCLLVYDNTV | 2.11 ± 0.079
63 | VCYYRQACTITNLLVMVFVC | inactive
64 | VDEADVRKHMT | inactive
65 | VDMSNFRANVVTHSPIGGLR | inactive
66 | VDNSFEYIWDLFTVDHMSGA | inactive
67 | VDSHANHGSNHRWSASDEIS | inactive
68 | VDSSRIKCSNVN | inactive
69 | VDVAVFLEMLYCWCRDGFTR | 1.79 ± 0.1
70 | VDYLRVLWQAQFGNFELWSR | inactive
71 | VEATSTRGDTAPVPERGMLG | -1.01 ± 1.7
72 | VEFSAIFFCTLLD | inactive
73 | VEFSVFGERNVIYGVLSWRS | 1.12 ± 0.12
74 | VEGRMLSYLHVIYMYSGWRK | inactive
75 | VEKCSVCLPTFEGWPLSKRF | inactive
76 | VERRMTKVWTGARSPGRVFW | inactive
77 | VESYPVGLY | 1.56 ± 0.068
78 | VEVRVYTFF | 2.23 ± 0.074
79 | VEWLTSLVVIFWNFGKNKFL | inactive
80 | VFAAKGPTMYRSARVS | inactive
